Measured values reported in the supplement of paper PMC11136658.

Tested on: peptide library, one residue held at a place counted from the Y acceptor
Experiment: relative phosphorylation of the sub-library (ratio to the mean residue at this position); higher = residue favoured
Procedure, shortened: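 Each value expresses phosphorylation relative to the mean randomized residue. Purified recombinant kinases acted for 90 min in 384-well plates on biotinylated Tyr-centred peptide library mixtures, with one residue fixed at one position from −5 to +5, in the presence of 50 μM ATP with γ-32P-ATP. Signals were read by phosphorimaging after capture on streptavidin membranes, then normalized per position to the sum of the 18 randomized residues (16 in the Ser/Thr-free library) and multiplied by that number.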

Sequence of SRMS, construct: aa221-486, human (Q9H3Y6 221-486, looked up): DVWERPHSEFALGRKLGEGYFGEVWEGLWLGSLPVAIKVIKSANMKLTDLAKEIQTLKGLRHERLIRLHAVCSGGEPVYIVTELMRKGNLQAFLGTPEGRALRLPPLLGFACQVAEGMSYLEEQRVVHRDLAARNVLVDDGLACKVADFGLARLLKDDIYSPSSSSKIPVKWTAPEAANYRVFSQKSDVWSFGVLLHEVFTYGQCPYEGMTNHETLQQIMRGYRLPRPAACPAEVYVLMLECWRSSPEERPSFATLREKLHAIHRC
Sequence of TEC, construct: Full length, human (P42680 whole entry, looked up): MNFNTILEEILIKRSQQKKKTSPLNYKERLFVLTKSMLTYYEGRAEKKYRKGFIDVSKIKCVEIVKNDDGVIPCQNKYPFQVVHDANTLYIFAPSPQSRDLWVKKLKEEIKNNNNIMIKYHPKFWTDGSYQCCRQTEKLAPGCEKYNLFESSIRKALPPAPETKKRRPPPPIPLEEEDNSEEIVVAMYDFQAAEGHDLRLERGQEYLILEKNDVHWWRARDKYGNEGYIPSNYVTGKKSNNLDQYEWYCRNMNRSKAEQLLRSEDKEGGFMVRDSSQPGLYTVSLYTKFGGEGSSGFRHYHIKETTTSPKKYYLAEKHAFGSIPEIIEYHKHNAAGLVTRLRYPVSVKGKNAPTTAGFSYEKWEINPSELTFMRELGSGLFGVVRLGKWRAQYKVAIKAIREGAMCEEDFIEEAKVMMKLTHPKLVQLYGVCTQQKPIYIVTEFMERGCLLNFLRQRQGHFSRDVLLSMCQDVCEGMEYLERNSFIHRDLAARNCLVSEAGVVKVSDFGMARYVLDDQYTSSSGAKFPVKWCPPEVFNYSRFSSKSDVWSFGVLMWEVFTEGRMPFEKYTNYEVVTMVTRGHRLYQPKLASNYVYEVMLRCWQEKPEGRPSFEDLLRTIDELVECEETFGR
Sequence of TEK, construct: aa771-end, human (Q02763 771-1124, looked up): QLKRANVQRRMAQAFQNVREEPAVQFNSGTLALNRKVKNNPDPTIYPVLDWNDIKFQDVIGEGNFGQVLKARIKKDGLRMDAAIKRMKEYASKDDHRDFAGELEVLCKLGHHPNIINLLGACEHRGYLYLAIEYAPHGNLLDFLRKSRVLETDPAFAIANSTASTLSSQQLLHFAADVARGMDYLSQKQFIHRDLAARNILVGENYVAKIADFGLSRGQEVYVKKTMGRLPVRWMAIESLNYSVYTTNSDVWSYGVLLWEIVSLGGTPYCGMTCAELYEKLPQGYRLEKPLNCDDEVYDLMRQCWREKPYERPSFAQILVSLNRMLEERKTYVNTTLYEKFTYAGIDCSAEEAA

SRMS, construct: aa221-486, human (from UniProt Q9H3Y6)
relative phosphorylation
Conditions	at +1	at +2	at +3	at +4	at +5	at -1	at -2	at -3	at -4	at -5
A fixed	1.61	0.852	0.745	0.969	1.04	0.678	1.08	0.923	1.13	1.02
D fixed	1.27	1.37	0.647	1.09	1.1	0.76	1.3	1.33	1.22	1.14
E fixed	2.77	1.87	0.602	1.41	1.23	0.764	1.61	1.88	1.18	1.07
F fixed	0.567	0.976	1.42	0.922	0.996	1.49	0.718	1.05	1.1	1.01
G fixed	0.832	0.583	0.964	1.15	1.18	0.296	1.01	1.07	1.08	1.18
H fixed	0.66	0.783	0.837	1.11	0.897	1.13	0.924	0.961	0.842	0.87
I fixed	1.26	1.07	2.19	0.812	0.864	2.65	0.963	0.778	0.816	0.921
K fixed	0.273	0.451	0.291	0.736	0.714	0.317	0.605	0.62	0.767	0.91
L fixed	0.788	1.07	1.56	0.795	0.92	1.98	0.921	0.839	1.03	0.919
M fixed	1.12	1.01	1.31	1.13	1.02	1.2	0.837	1.03	0.991	0.995
N fixed	0.539	1.17	0.534	0.818	0.958	0.564	1.08	1.26	0.945	1.08
P fixed	0.16	0.742	1	1.27	1.59	0.546	1.22	0.923	1.23	1.21
Q fixed	1.2	0.857	0.847	1.05	0.891	0.591	1.05	0.819	1.12	1.01
R fixed	0.361	0.635	0.397	0.871	0.768	0.351	0.576	0.671	0.867	0.946
S fixed	1.12	1.07	0.784	0.971	1	0.5	1.12	1.04	0.882	0.971
T fixed	1.12	1.26	1.01	0.923	1	1.26	0.998	1.01	0.754	0.879
V fixed	1.35	1.07	1.6	0.884	0.896	1.83	1.13	0.792	0.849	0.903
W fixed	1.01	1.16	1.27	1.09	0.942	1.1	0.856	0.994	1.2	0.962
pThr fixed	2.26	2.43	0.579	1.07	0.972	1.2	1.19	1.02	0.958	1.03
pTyr fixed	2.12	3.06	1.02	1.47	1.07	1.38	1.44	1.51	1.27	1.21

TEC, construct: Full length, human (from UniProt P42680)
relative phosphorylation
Conditions	at +1	at +2	at +3	at +4	at +5	at -1	at -2	at -3	at -4	at -5
A fixed	1.7	0.954	0.562	0.694	0.847	0.4	1.06	0.921	1.1	0.884
D fixed	0.761	0.712	0.353	0.726	0.87	0.463	1.44	1.42	1.41	1.26
E fixed	2.13	0.838	0.301	0.674	0.934	0.454	1.82	1.65	1.51	1.06
F fixed	0.677	1.07	1.65	1.12	1.11	1.33	0.585	1.32	0.973	0.94
G fixed	0.565	0.515	0.568	0.821	0.921	0.263	1.11	0.917	1.03	1.02
H fixed	0.582	1.04	1.2	1.55	1.24	0.555	1.04	0.944	0.967	1.13
I fixed	1.21	0.776	1.75	0.789	0.637	5.08	0.736	0.746	0.857	0.79
K fixed	0.295	0.932	0.78	1.23	1.23	0.279	0.915	0.682	0.924	1.06
L fixed	0.935	0.918	1.4	0.889	0.838	2.88	0.9	0.814	0.955	0.921
M fixed	1.58	0.86	1.25	0.98	0.956	1.26	0.806	0.932	0.945	1.01
N fixed	0.466	1.2	0.692	0.896	1.01	0.433	1.19	1.25	1.01	1.21
P fixed	0.143	0.67	0.721	0.986	1.07	0.38	1.13	0.962	0.989	0.949
Q fixed	1.33	1.07	0.643	1.05	1.03	0.441	1.22	0.967	1.28	1.2
R fixed	0.413	1.66	1.32	1.61	1.36	0.274	0.882	0.773	0.891	1.15
S fixed	1.22	1.31	0.67	0.871	0.997	0.409	0.942	1.1	0.771	0.919
T fixed	1.05	1.13	0.702	0.817	0.924	0.801	0.856	0.78	0.626	0.754
V fixed	1.57	1.03	1.26	0.785	0.656	1.7	0.782	0.775	0.785	0.887
W fixed	1.38	1.31	2.18	1.51	1.37	0.596	0.589	1.05	0.981	0.856
pThr fixed	1.91	1.66	0.298	0.525	0.563	0.786	1.26	0.929	1.03	0.999
pTyr fixed	1.08	1.3	0.4	0.683	0.779	2.06	0.955	1.08	1.02	0.894

TEK, construct: aa771-end, human (from UniProt Q02763)
relative phosphorylation
Conditions	at +1	at +2	at +3	at +4	at +5	at -1	at -2	at -3	at -4	at -5
A fixed	0.824	0.564	0.495	0.84	1.16	0.673	0.88	0.762	1.02	0.755
D fixed	0.525	0.606	0.254	0.752	0.411	0.863	0.972	0.981	0.932	0.844
E fixed	1.78	1.11	0.233	0.854	0.367	1.07	1.19	1.06	0.927	0.772
F fixed	0.935	1.43	1.97	1.16	0.471	1.19	0.833	1.21	0.976	1.18
G fixed	0.429	0.332	0.395	1.05	1.68	0.512	1.11	0.972	1.3	1.16
H fixed	1.12	0.955	1.47	1.06	0.691	1.2	1.09	1.08	0.997	1.03
I fixed	1.37	1.07	1.89	0.823	0.478	1.42	0.936	0.794	0.792	0.969
K fixed	0.577	0.6	0.665	0.986	0.996	0.594	0.83	0.828	1.26	1.26
L fixed	1.06	1.67	1.49	1.11	0.509	1.92	0.94	0.854	0.908	0.898
M fixed	1.16	1.4	1.18	1.42	0.608	1.5	0.868	0.988	0.839	0.948
N fixed	0.54	1.01	0.429	0.846	0.844	1.03	1.15	1.27	1.09	1.14
P fixed	1.31	0.606	0.505	1.43	3.89	0.878	0.913	1	1.07	0.967
Q fixed	1.15	0.913	0.581	1.31	0.866	0.891	1.25	1.01	1.16	1.03
R fixed	0.705	0.717	0.658	1.05	0.944	0.56	0.935	0.936	1.22	1.37
S fixed	0.816	0.725	0.445	0.795	1.97	0.756	1.06	1.11	0.917	0.963
T fixed	0.951	0.873	0.746	0.734	1.03	0.921	1.08	1.06	0.789	0.955
V fixed	1.89	1.03	1.81	0.871	0.498	1.22	0.926	0.941	0.787	0.852
W fixed	0.848	2.39	2.79	0.901	0.587	0.812	1.02	1.15	1.03	0.901
pThr fixed	0.806	1.6	0.252	0.346	0.313	1.22	0.849	0.769	0.71	0.686
pTyr fixed	2.39	1.81	0.341	0.473	0.276	1.97	0.786	1.34	0.874	0.643
